This is an account of results in article PMC12157425 (bioRxiv, 2025).

Where no end group is shown, it is not given here. [ ]: non-standard residue; d: D form. pT = C[C@@H](OP(=O)(O)O)[C@H](N)C(=O)O; pS = N[C@@H](COP(=O)(O)O)C(=O)O

Experiment [1] concerns the target βarr1 (Homo sapiens, UniProt P49407, A12C/C125S/C140L/C150V/C242V/C251V/C269S/C59V/V387C). The experiment is described as follows: smFRET imaging of surface-tethered βarr1–12-387-AF488-AT647N C-tail sensor. The format is biochemical. As to conditions: parent sensor, 100 μM PIP2.
For experiment [2], the target named is 3Q βarr1 (Homo sapiens, UniProt P49407, C125S/C140L/C150V/C242V/C251V/C269S/C59V/K232Q/K250Q/R236Q). Kind of experiment: Fluorescence polarization binding of BODIPY-PIP2 to 3Q βarr1. Conditions: FP with a BODIPY-derivative of PIP2. (In fluorescence polarisation assays a small probe gives low polarisation when free and higher when bound to something large.)
Experiment [3] concerns the target βarr1–12-398-AF488-AT647 (human) (UniProt P49407).
The target of experiment [4] is βarr1–12-387-AF488-AT647N (cysteine-free human β-arrestin 1 C-tail sensor with cysteines at positions 12 and 387) (human) (UniProt P49407). Kind of experiment: other fluorescence titration.
The target in experiment [5] is 3A βarr1 (F388A/V387C/I386A triple mutant of the βarr1–12-387 C-tail sensor) (human) (UniProt P49407). The experiment is described as follows: single-molecule FRET.
Experiment [6] addresses βarr1–12-387-AF488-AT647N (cysteine-free human β-arrestin 1 C-tail sensor with cysteines at positions 12 and 387) (human) (UniProt P49407). Kind of experiment: single-molecule FRET.
For experiment [7] the target is unchanged. Kind of experiment: single-molecule FRET. This is another data set of the same source.

“phosphatidylinositol 4,5-bisphosphate [PIP2]”: the “mid-FRET dwell time representing the PIP2-bound state” value in experiment [1] is ~2 s. Moreover, the “binding of PIP2 to βarr1 3Q” value in experiment [2] is “essentially lost binding”.

As a reminder, the EC50 is the concentration that produces a half-maximal response. On to ARGR[pT]PP[pS]LGPQDE[pS]C[pT][pT]A[pS][pS][pS]LAKDTSS, for which the EC50 is 0.75 µM in experiment [3]; 1.5 µM in experiment [4]; 0.4 µM in experiment [5]; 11.8 µM in experiment [6]; 11.6 µM in experiment [7].

As for ARGRTPPSLGPQDESCT[pT]A[pS][pS][pS]LAKDTSS [P56, V2Rpp-derived phosphopeptide lacking four N-terminal phosphorylation sites], the EC50 in experiment [4] amounted to 30 µM.
